Data as given in PMC4956256.

What was measured:
[1] = target: soluble CD4 receptor ligand, CD4-Fc (sCD4) (UniProt P01730); assay: SPR; BIAcore 3000; about 200 RU of sCD4 immobilised directly on a CM5 chip by amine coupling; varying concentrations of gp120 injected at 100 ul/min; 25°C; PBS + 0.1% BSA; 1:1 Langmuir fit
[2] = target: TV1.C gp120 monomer (HIV-1 subtype C, strain TV1.C); assay: SEC + other: SDS-PAGE; purified TV1.C gp120; SDS-PAGE under reduced and non-reduced conditions; SEC-HPLC under non-reduced and reduced (otherwise native) conditions

| Substance | Kd [1] [nM] | stoichiometry N [2] |
| --- | --- | --- |
| 1086.C gp120 monomer (natural protein) | 26.6 | – |
| TV1.C gp120 monomer (natural protein) | 148 | 2 |
